In patent US9539315B2, “Methods, agents and peptides for inhibiting matrix metalloproteinase-2 signaling” (New York University, priority 2011, dated 2017):
Entries after “also recorded” stand apart in the source; their conditions may differ.

Columns and labels:
human TLR-2 = target: T1, human TLR-2 (Homo sapiens, UniProt O60603); test: HEK-Blue-hTLR2 NF-κB SEAP reporter assay; format: cell-based; details: MMP-2 5 mg/ml; twenty hours; with/without TLR2 blocking antibody
T1 construct: host or cells: HEK293 (HEK-Blue-hTLR2 cells)
T1 sequence (O60603 21-784): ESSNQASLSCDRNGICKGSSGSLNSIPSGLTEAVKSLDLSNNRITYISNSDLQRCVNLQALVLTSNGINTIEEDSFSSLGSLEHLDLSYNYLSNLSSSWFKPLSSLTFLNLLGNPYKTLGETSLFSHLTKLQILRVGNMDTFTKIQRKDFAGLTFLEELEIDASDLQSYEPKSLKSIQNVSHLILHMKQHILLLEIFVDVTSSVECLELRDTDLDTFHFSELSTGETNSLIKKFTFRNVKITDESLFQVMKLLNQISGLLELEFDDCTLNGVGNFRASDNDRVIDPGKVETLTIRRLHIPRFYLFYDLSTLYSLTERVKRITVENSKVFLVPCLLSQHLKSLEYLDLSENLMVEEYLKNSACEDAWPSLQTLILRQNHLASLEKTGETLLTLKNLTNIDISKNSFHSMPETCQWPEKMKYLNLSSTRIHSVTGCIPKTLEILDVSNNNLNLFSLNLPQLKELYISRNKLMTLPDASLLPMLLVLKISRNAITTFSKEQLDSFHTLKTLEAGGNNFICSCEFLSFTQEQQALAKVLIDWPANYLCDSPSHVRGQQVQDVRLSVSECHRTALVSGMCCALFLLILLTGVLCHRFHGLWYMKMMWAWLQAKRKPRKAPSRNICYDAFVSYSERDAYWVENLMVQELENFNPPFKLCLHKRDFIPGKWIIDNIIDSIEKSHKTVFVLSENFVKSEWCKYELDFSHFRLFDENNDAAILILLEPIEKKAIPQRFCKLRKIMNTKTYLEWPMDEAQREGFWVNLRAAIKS
Method: (§1) A) DCs were exposed to various TLR agonists for 2 days before cells were stained for OX40L. […] B) TLR2-transfected and engineered HEK cells were incubated with MMP-2 (5 mg/ml) or various controls. All conditions were also tested in the presence of a blocking antibody for TLR2. TNFα was used to activate NF-κB in a TLR-independent manner. Twenty hours later, NF-κB activation was measured.
TLR2-transfected and engineered HEK cells were incubated with MMP-2 (5 mg/ml), TLR2 agonists, recombinant PEX and 3 pools of overlapping 20-mers covering MMP-2. OLP1: mix of 22 overlapping peptides covering MMP-2 from amino-acid 1 to 220; OLP2: mix of 22 overlapping peptides covering MMP-2 from amino-acid 210 to 440; OLP3: mix of 22 overlapping peptides covering MMP-2 from amino-acid 450 to 660. Twenty hours later, NF-κB activation was measured. Neither PEX nor the peptides triggered NF-κB signaling.
TLR-2-transfected (stably) HEK-Blue™ Cells represent a very efficient high throughput reagent for screening due to an easy read-out. […] Levels of SEAP can be readily determined with QUANTI-Blue™, a detection medium that turns purple/blue in the presence of alkaline phosphatase. […] Inhibition of NF-κB activation by any agents/molecules can be assessed and confirmed in DCs (which endogenously express TLR2 or are engineered to express exogenous TLR2) in order to corroborate the initial screening results in a native or more natural context. […] TLR-2-expressing cells, such as those described herein, can be incubated with agents/molecules and molecular interactions assessed using methods, such as, e.g., co-immunoprecipitation of MMP-2 and TLR-2 from the cell lysates. […] Additional methods can be used to evaluate if MMP-2 and TLR-2 interact directly, including other affinity-based methods (e.g., affinity chromatography or panning), competitive inhibition assays, and various visualization techniques, such as fluorescence resonance energy transfer (FRET) and others which are known in the art. […]

OX40L = OX40L expression on DCs (staining); format: cell-based, human; details: DCs exposed for 2 days, stained for OX40L
Method: (§2) A) DCs were exposed to MMP-2 […] or zymosan […], a known activator of NF-κB that acts via TLR2, for the indicated time. Cytosolic and nuclear fractions were isolated and p50 contents were measured by ELISA. […] C) OX40L over-expression on DCs induced by MMP-2 is inhibited by an inhibitor of NEMO, the NEMO binding domain (NBD) peptide, but not by the corresponding negative control, a NBD mutant.
as §1
Antibody to OX40L (11C3.1) was from Biolegend. Blocking antibodies to TLR-2 and TLR-6 were from Invivogen. Antibodies to GATA-3, IL-4 (8D4-8), IL-5 (JES1-39D10), IL-13 (JES10-5A2), TNFα (MAb11), IFNγ (25723.11), perforin (δG9), GranzymeB (GB11), CD40 (5C3), CD80 (L307.4), CD83 (HB15e), CD86 (IT2.2), HLA-DR (TU36), fluorescein isothiocyanate-conjugated antibodies to CD45RA (HI100) and CD45RO (UCHL1), and antibody to CD4 (RPA-T4) were purchased from BD Biosciences Pharmingen. Alexa fluor 488-conjugated antibody to IL-17 (eBio64DEC17), phycoerythrine-conjugated antibody to T-bet (4B10).
(§3) PBMCs were purified from healthy-(HD) or cord blood- (CB) donors and plated at 40×10^6 cells/10 mL/dish in complete IMDM with 5% PHS. Cells were allowed to adhere for 2 h at 37° C. Non-adherent cells were removed. The monocyte-enriched fraction was supplemented with 100 UI/mL rhGMCSF and 300 UI/mL rhIL-4 (R&D Systems) on days 0, 2 and 4. Immature DCs were harvested on day 5 and matured using poly(I:C) at 5 μg/mL/10^6 DCs (Amersham). Secretion of IL-12p70, TNFα, IL-1β, IL-6, IL-8 and IL-10 was assessed on both immature and mature DCs using the Human Inflammatory Cytokine Cytometric Bead Array (BD Pharmingen).

NF-κB pathway = test: p50 nuclear translocation / NF-κB activation in DCs (ELISA of cytosolic and nuclear fractions); format: cell-based, human
Method: as §2, §3
Activation of T cell clones (10,000 cells/100 μL/well), polyclonal T cell populations (100,000 cells/100 μL/well), and DCs (50,000 cells/100 μL/well) can be determined by ELISA. IFNγ (BioSource), TNFα (BioSource), IL-4 (BioSource), IFNβ (VeriKine; PBL interferon source) and MCP-3 (DuoSet; R&D Systems) contents in supernatants were measured according to the manufacturer's instructions. p50 was measured in cytosolic and nuclear fractions (fractions separated using the nuclear separation kit from Active motif) by ELISA (Active motif).

B1: matrix metalloproteinase-2 (protein)
chain: YNFFPRKPKWDKNQITYRIIGYTPDLDPETVDDAFARAFQVWSDVTPLRFSRIHDGEADIMINFGRWEHGDGYPFDGKDGLLAHAFAPGTGVGGDSHFDDDELWTLGEGQVVRVKYGNADGEYCKFPFLFNGKEYNSCTDTGRSDGFLWCSTTYNFEKDGKYGFCPHEALFTMGGNAEGQPCKFPFRFQGTSYDSCTTEGRTDGYRWCGTTEDYDRDKKYGFCPETAMSTVGGNSEGAPCVFPFTFLGNKYESCTSAGRSDGKMWCATTANYDDDRKWGFCPDQGYSLFLVAAHEFGHAMGLEHSQDPGALMAPIYTYTKNFRLSQDDIKGIQELYGASPDIDLGTGPTPTLGPVTPEICKQDIVFDGIAQIRGEIFFFKDRFIWRTVTPRDKPMGPLLVATFWPELPEKIDAVYEAPQEEKAVFFAGNEYWIYSASTLERGYPKPLTSLGLPPDVQRVDAAFNWSKNKKTYIFAGDKFWRYNEVKKKMDPGFPKLIADAWNAIPDNLDAVVDLQGGGHSYFFKGAYYLKLENQSLKSVKFGSIKSDWLGC
NF-κB activation in TLR2-transfected HEK cells (human TLR-2): activates NF-κB through TLR-2 triggering; also recorded: activate NF-κB in a TLR2-dependent manner | OX40L expression on DCs (OX40L): induce OX40L expression | p50 translocation in the nucleus (NF-κB pathway; DCs exposed to MMP-2 (5 μm/ml) or zymosan (10 μm/ml), p50 by ELISA): triggers p50 translocation in the nucleus; also recorded: induce p50 translocation in the nucleus after 30 min | NF-κB activation in DCs (NF-κB pathway; active vs heat-inactivated MMP-2): NF-κB activation (FIGS. 2A, 2B and 3) at similar levels
